Several values for one entry are separate records, joined by “and”; a condition that tells them apart may be missing. Equal entries are not always repeated.
Tests used:
Format in all cases: physicochemical
[1] = Bulk density (BD), USP 2014 Method I (616) Bulk Density and Tapped Density of Powders; settings: lyophilized Tirzepatide powder, before particle size reduction
Method: Bulk density (BD) was measured according to USP 2014 Method I (616) Bulk Density and Tapped Density of Powders.

[2] = Flowability, flow through an orifice (BEP2 Flowability Tester, 25 mm nozzle); settings: lyophilized Tirzepatide powder; flow through funnel, 25 mm aperture
Source text: Instrument: BEP2 Flowability Tester from Copley Scientific, with Funnel Attachment and Manually Operated Stirrer with a nozzle corresponding to aperture size of 25 mm.
Methodology: Flow Through an Orifice
The test sample was introduced into the funnel and the time required for the entire sample to flow out of the funnel was measure using a suitable stopwatch.
The flow rate results are expressed in terms of mass vs time, i.e., grams per second.

[3] = Particle size distribution by laser diffraction (Malvern Mastersizer 3000, Mie theory, Isopar-G); settings: Tirzepatide powder after particle size reduction (jet milling or sieving)
Method: As used herein, particle size distribution is determined by means of laser diffractometry. More specifically, unless otherwise indicated, the particle size was determined using a Mastersizer 3000 from Malvern Instruments. Preferably, particle size and particle size distribution are determined by laser light diffraction, using Mie theory, and Isopar-G dispersant (isoparaffinic fluid (CAS No) 64742-48-9)) refractive index 1.42.
It will be understood that the term “D(90)” as used herein refers to a particle size distribution where 90% of the volume of particles have a diameter lower than the D(90) value.
• Instrumentation: Malvern Laser Diffraction Mastersizer 3000, Hydro My cell • Measuring range: 0.01-3500 mcm • Analysis model: Mie Theory • Powder RI: 1.488, Absorption: 1 • Dispersant name: Isopar-G • Dispersant RI: 1.42 • Speed rate of the flow cell: 2500 • Internal Sonication: 1 minute • Recirculation time: 1 minute

Substance	BD (bulk density) [1]	flowability [2]	particle size d(0.9) [3]
Tirzepatide [Example 1]	0.1 g/mL	6.1 g/s	–
Tirzepatide [Example 1A]	0.13 g/mL	9.7 g/s	–
Tirzepatide [Example 3A]	–	–	59 μm and 59.1 μm
Tirzepatide [Example 3B]	–	–	128 μm and 128.0 μm
Tirzepatide [Example 1B]	0.007 g/mL	non flowable	–
Tirzepatide [Example 2]	–	–	21.9 μm
Tirzepatide [Example 3]	–	–	31 μm and 30.9 μm
